US20240158511A1 (GENERAL HOSPITAL, published 2024)

Assays:
A-domain of CD11b [1] = target: T1, A-domain of CD11b (UniProt P11215 139-337); assay: BLI (Octet), A-domain of CD11b as ligand
T1 construct: domain: A-domain; Used as the ligand in BLI (Octet); also called CD11b A-domain; CD11bA domain
Method: Production, purification, and evaluation: Expi293 cells (Thermo Fisher) were used to produce recombinant antibodies. Cells were grown on orbital shaker (125 rpm) in Expi293 Expression Medium (Thermo Fisher) at 37° C. in 5% CO2. Expi293 cells were transiently transfected with 1:1 heavy chain and light chain plasmids, using manufacturer's protocol. Culture supernatant was harvested after one week, and IgG was purified using Protein G agarose beads (Thermo Scientific). We routinely obtained 1-3 mg of purified IgG per 100 ml of cell culture. The protein sizes of the heavy and light chains and purity of the IgG were confirmed on SDSPAGE. Affinity of the humanized mAb107 vs. mouse mAb107 was measured using the A-domain of CD11b as ligand by Bio-layer interferometry (BLI) using the Octet Assay system.

A-domain of CD11b [2] = target: T1, A-domain of CD11b; assay: assay not given; presumably BLI on the CD11b A-domain as in Example 1; lower end of the printed range 5-9 nM

T1 sequence (P11215 139-337 limits assumed): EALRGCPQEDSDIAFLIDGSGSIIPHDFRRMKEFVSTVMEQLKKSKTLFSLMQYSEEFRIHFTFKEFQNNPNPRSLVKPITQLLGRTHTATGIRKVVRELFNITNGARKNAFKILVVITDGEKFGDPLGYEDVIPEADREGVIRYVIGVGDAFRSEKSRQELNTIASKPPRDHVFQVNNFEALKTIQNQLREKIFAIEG

Binder	Kd (A-domain of CD11b [1])	Kd (A-domain of CD11b [2])
humanized N55D-substituted mAb107 (humanized IgG4κ mAb107) (antibody, V domains shown, The VH was joined to a human IgG4 constant region and the VL to a human kappa constant region; also called humAb107; humanized mAb107) VH: QVQLVQSGAEVKKPGASVKVSCKPSGFNIKDIYMQWVRQAPGQRLEWIGRIDPADDKTKYDPKFQGRATITADTSASTAYLELSSLRSEDTAVYYCASEGHYGYDGYAMDYWGQGTTVTVSS VL: not shown	5 to 9 nM	
Humanized mutagenized mAb107 IgG4k heavy chain V5 (antibody, V domains shown, The residue limits were counted on the printed translation; The heavy chain carries the N-to-D substitution in CDR2 and S228P in the IgG4 hinge; also called Humanized mutagenized anti-CD11b; humanized IgG4κ mAb107 containing Pro 228) VH: QVQLVQSGAEVKKPGASVKVSCKPSGFNIKDIYMQWVRQAPGQRLEWIGRIDPADDKTKYDPKFQGRATITADTSASTAYLELSSLRSEDTAVYYCASEGHYGYDGYAMDYWGQGTTVTVSS VL: not shown		5 to 9 nM
